The values below are quoted from earlier work in article PMC4865444.

Data set [1] deals with Nef SF2 (Human immunodeficiency virus 1) (UniProt P03407).
In data set [2] the target is Nef NL4-3 (Human immunodeficiency virus 1) (UniProt P04324).

Sequence of UniProt P03407 (P03407 2-210): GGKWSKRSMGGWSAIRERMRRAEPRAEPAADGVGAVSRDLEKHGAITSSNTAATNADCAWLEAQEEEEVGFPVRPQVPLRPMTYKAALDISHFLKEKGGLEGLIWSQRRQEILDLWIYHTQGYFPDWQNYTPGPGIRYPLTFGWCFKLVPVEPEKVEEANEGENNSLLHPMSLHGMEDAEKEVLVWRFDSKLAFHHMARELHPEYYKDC

In the case of Hck SH3 (from UniProt P08631), the Kd – broadly, the free concentration of one partner at which half of the binding sites on the other are occupied at equilibrium, for simple one-to-one binding – in data set [1] is 640 nM; in data set [2], 1400 nM.
